From US11766414B2, “Compositions, delivery systems, and methods useful in tumor therapy” (Indi Molecular, Inc., priority 2020, dated 2023) come the findings set out here.

Starred links: 1 amine or outer side, 2 acyl side, 3 side chain; linkers in the order of their positions; H or OH if unused. Positions of bridges follow the written chain, without caps; N, C: chain ends. Non-standard residues stand in square brackets, D forms with d. Residues, ends and D or L forms follow the SMILES beside them. Groups on a side chain read outwards from the residue. Triazole bridges read from a SMILES are 1,4-linked. *: point of attachment. DOTA = O=C(O)CN1CCN(CC(=O)O)CCN(CC(=O)*)CCN(CC(=O)O)CC1; Pteroyl = Nc1nc2ncc(CNc3ccc(C(=O)*)cc3)nc2c(=O)[nH]1; Butanoyl(4-(4-MePh)) = Cc1ccc(CCCC(=O)*)cc1; Lys(N3) = [N-]=[N+]=NCCCC[C@H](N)C(=O)O; γGlu = O=C(O)[C@H](CCC(=O)[*:2])N[*:1]; AEEEA = NCCOCCOCCOCC(=O)O; Pra = C#CC[C@H](N)C(=O)O; X1 = NOCC(=O)*

A short description of data set [1]: Plasma protein binding, CD-1 mouse plasma. As to conditions: for fraction unbound / recovery: CD-1 mouse plasma; for fraction unbound: read-out: Plasma % Bound, Mu (converted). Format: in vitro ADME. As for the experimental part:
(§1) HTD 96 a/b regenerated cellulose membrane strips with mass cutoff of 12-14 kDa were soaked in ultra-pure water at room temperature for 1 hour. Each swelled membrane was then soaked in 20:80 ethanol:water for 20 minutes.
(§2) Just prior to the experiment, the membranes were re-soaked in ultra-pure water. Plasma was prepared by thawing under cold water. The plasma was centrifuged to remove any clots and pH was adjusted to 7.0-8.0. Test articles and control compounds were diluted to 2 μM. The dialysis device was loaded by transferring 150 μL of the test article (in triplicate) to the donor side. The dialysis device was placed in a humidified incubator at 37° C. with 5% CO2 in a shaking platform that rotated slowly for 4 hours. After incubation, 50 μL of the supernatant was taken from both sides and analyzed by LC-MS/MS.

Data set [2] can be described thus: Plasma protein binding, human plasma. Format: in vitro ADME. As to conditions: for recovery / fraction unbound: human plasma; for fraction unbound: read-out: Plasma % Bound, Hu (converted). As for the experimental part: as §1, §2
The next data set deals with human recombinant NEP (Homo sapiens, UniProt P08473). Kind of data set: NEP enzymatic cleavage assay (MALDI, HPLC). The format is biochemical. As for the experimental part:
In order to test the susceptibility of GFK and MVK linkers to NEP-mediated cleavage, the peptide (Folate-hshta-Lys(MPBA)-Gly-Phe-Lys(DOTA) (SEQ ID NO:6)) was incubated with human recombinant NEP and analyzed the solution for the presence of cleaved adducts. MALDI was utilized to monitor the cleavage of a PCC heterobiligand that contains a NEP protease recognizable sequence (G-F-K). The PCC concentration was constant and the NEP concentration was titrated down from 10 nM to 1 nM, 0.1 nM, 0.01 nM, and no NEP. The NEP-mediated cleaved adduct was identified by mass. 10 μM PCC containing the GFK linker was combined with varying amounts of NEP. […] Below 0.1 nM no cleavage was observed. • Folate-hshta-Lys(MPBA)-Gly-Phe-Lys(DOTA) (SEQ ID NO:6) • Molecular weight 2231.42
The NEP-mediated cleavage was also monitored by HPLC. In agreement with the MALDI spectra, the HPLC chromatograms show depletion of the parent brush-border heterobiligand (retention time 17.1 minutes), dose-dependent on the amount of NEP spiked into the sample (10 nM, 1 nM, 0.1 nM, 0.01 nM, and no NEP). An appearance of a new peak (retention time 16.5 minutes) in concert with the depletion of the starting material is presumed to be the cleaved folate-containing peptide.
In order to test the specificity of NEP, a non-cleavable linker (PEG3) was also assayed.
To reduce the radioactive dose to the kidney, Indi ^177Lu-7327 was constructed to incorporate a GFK linker that is susceptible to cleavage by enzymes found predominately in the kidney's brush border. These enzymes cleave off the radionuclide-chelator complex, which is quickly eliminated by the kidney for excretion in the urine. The zinc metalloprotease neprilysin (NEP) is expressed with high abundance in the kidney. […] To confirm NEP-mediated cleavage of the GFK linker in Indi 7327, the peptide was incubated with recombinant human NEP at 37° C. for 1 h and analyzed by matrix-assisted laser desorption/ionization mass spectrometry (MALDI-MS) for the evolution of cleaved adducts (FIG. 42). […] The expected cleaved adduct (mass: 1283.16 m/z) appears in the samples containing 10, 1.0, and 0.1 nM NEP. […] Below 0.1 nM NEP, no cleavage was observed. In addition to confirming the selectivity of NEP for the GFK linker, it is also important to note that the remaining portions of the Indi 7327 were impervious to the enzyme.

Data set [3] deals with OVCAR3 xenograft. Kind of data set: 177Lu FOLR1 radioligand therapy of OVCAR3 xenografts. As to conditions: single dose. The format is in vivo, mouse.
Data set [4] can be described thus: Maximum tolerated dose (MTD) tolerability study.
Experimental: In order to establish a maximum tolerated dose (MTD), a tolerability study was undertaken testing increasing amounts of the 177-Lu heterobiligand 7327 (folate-hshta-Gly-Phe-Lys(DOTA)). Animals were monitored for signs of toxicity and weighed twice weekly. […] The second and third doses were administered 21 days following the previous dose.
Efforts were undertaken to evaluate 177-Lu 6305 (folate-hshta-Lys(MPBA)-Gly-Phe-Lys(DOTA)), a compound with a brush border cleavable linker in addition to an albumin binder. […] Two separate MTD experiments were undertaken. […] A second experiment interrogated lower doses.
In order to establish a MTD, dose range finding studies were undertaken testing increasing amounts of Indi ^177Lu-7327 in healthy, non-tumor bearing female NSG mice using IV administration (FIGS. 34 and 35). Mouse body weight and behavior were monitored. […] The second and third doses were administered 21 days following the previous dose.
Data set [5] is described as follows: Gamma counting of tissue radioactivity. The format is in vivo, mouse. As to conditions: for kidney radioactivity / liver radioactivity / tumor radioactivity: Day 28 post-injection. From the text: 7 days after Lu177-#6305 injection, the 29.6 MBq group lost 20% body weight. These mice were sacrificed. Tissues and plasma were collected for evaluation of radioactivity by gamma counting. The toxicity may have resulted from its accumulation in the kidneys and liver (FIG. 28). At study endpoint (Day 28 post-injection), plasma, tumors, kidneys, lungs, hearts, livers, and muscles from 9.25 MBq and 14.8 MBq treatment groups were collected for evaluation of radioactivity by gamma counting (FIG. 29).

Data set [6] has as its system OVCAR3 xenograft. Description: 177Lu FOLR1 radioligand therapy of OVCAR3 xenografts. As to conditions: for tumor response: single dose at 18.5 MBq/nmol, tumor size (avg.) 148 mm^3. The format is in vivo, mouse. As for the experimental part: Water and food were provided ad libitum. […] Tumor growth was monitored by caliper measurements.
OVCAR3 tumor bearing mice were used to study FOLR1-directed radioligand therapy (RLT) for treatment of ovarian cancer. Animals were administered a single dose of heterobiligand (vehicle control) or 111, 37, 18.5, 9.25, or 3.7 MBq [^177Lu]DOTA-labeled heterobiligand. Mice received the dose intravenously (i.v.) via the tail vein. To monitor the effect of the RLT, tumor size measurements were taken twice weekly and body weights were measured.
Single dose treatments at 18.5 MBq/nmol specific activity. OVCAR3 mouse model was used. 10^7 cell tumors were implanted in the mice one month before administration of ^177Lu-#6305. Five mice each were administered Cold #6305, 9.25 MBq Lu177-#6305, and 14.8 MBq Lu177-#6305, and two mice were administered 29.6 MBq Lu177-#6305. Tumor growth and body weight were then monitored.
Female NSG mice were implanted subcutaneously with OVCAR3 cells. Once tumors reached volumes of 200 mm^3, the animals were treated with 177-Lu 7327. Three treatment arms of 9.25 MBq, 14.8 MBq, and 29.6 MBq were studied.

[7] abbreviates: read-out: Plasma protein binding % Recovery, Mu.
The mark [8] stands for this setting: read-out: Plasma protein binding % Recovery, Hu.
Setting [9] is: 29.6 MBq group, Day 7 post-injection.

human recombinant NEP, sequence (P08473 whole entry): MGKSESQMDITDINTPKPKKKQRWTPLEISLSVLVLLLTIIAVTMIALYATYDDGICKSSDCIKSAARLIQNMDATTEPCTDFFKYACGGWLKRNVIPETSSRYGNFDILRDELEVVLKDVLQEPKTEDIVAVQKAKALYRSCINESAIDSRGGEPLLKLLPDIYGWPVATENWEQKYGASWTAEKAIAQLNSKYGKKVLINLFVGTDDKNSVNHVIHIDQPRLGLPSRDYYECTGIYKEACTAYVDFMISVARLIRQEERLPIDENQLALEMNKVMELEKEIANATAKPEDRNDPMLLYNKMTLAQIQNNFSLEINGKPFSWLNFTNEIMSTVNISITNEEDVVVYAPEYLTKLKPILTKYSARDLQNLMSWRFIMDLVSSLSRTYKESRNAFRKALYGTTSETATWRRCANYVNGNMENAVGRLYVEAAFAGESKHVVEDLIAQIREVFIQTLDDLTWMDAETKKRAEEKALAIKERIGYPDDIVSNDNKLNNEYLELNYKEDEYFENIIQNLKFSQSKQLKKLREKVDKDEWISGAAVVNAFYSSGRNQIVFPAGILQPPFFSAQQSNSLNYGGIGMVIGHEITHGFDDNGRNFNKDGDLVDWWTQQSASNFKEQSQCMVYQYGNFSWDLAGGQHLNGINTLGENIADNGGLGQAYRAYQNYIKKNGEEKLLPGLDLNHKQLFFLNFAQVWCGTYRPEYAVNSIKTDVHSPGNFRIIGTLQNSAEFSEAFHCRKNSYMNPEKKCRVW

For the compound `C[C@H](O)[C@H]1NC(=O)[C@@H](Cc2c[nH]cn2)NC(=O)[C@@H](CO)NC(=O)[C@@H](Cc2c[nH]cn2)NC(=O)[C@@H](NC(=O)CC[C@H](NC(=O)c2ccc(NCc3cnc4nc(N)[nH]c(=O)c4n3)cc2)C(=O)O)Cc2cn(nn2)CCCC[C@@H](C(=O)NCCOCCOCCOCC(=O)NCC(=O)N[C@@H](Cc2ccccc2)C(=O)N[C@@H](CCCCNC(=O)CN2CCN(CC(=O)O)CCN(CC(=O)O)CCN(CC(=O)O)CC2)C(=O)O)NC(=O)[C@@H](C)NC1=O` [compound 6307, Fol-hshta-PEG3-Gly-Phe-Lys(DOTA)] ({Pteroyl-γGlu}-[Pra][dH][dS][dH][dT][dA][Lys(N3)][AEEEA]GFK(DOTA)-OH; triazole 1-7), the fraction unbound in data set [1] was 0.594; in data set [2] (human, plasma), 0.587. Moreover, the recovery stood at 68.9% in data set [1] (setting [7]) and 81.6% in data set [2] (setting [8]). In addition, on human recombinant NEP (Table 2), the “in vitro Assay Data (NEP assay)” value is reported as “Cleavage of -G-F-K-”.
For `C[C@H](O)[C@H]1NC(=O)[C@@H](Cc2cnc[nH]2)NC(=O)[C@@H](CO)NC(=O)[C@@H](Cc2cnc[nH]2)NC(=O)[C@@H](NC(=O)CC[C@H](NC(=O)c2ccc(NCc3cnc4nc(N)[nH]c(=O)c4n3)cc2)C(=O)O)Cc2cn(nn2)CCCC[C@@H](C(=O)NCC(=O)N[C@@H](Cc2ccccc2)C(=O)N[C@@H](CCCCNC(=O)CON)C(=O)O)NC(=O)[C@@H](C)NC1=O` [compound 3303, Fol-hshta-Gly-Phe-Lys(AO)] ({Pteroyl-γGlu}-[Pra][dH][dS][dH][dT][dA][Lys(N3)]GFK(X1)-OH; triazole 1-7), the fraction unbound at 4 h, 2 μM in data set [1] (CD-1, mouse, plasma, AO-containing constructs, (FB), read-out: Plasma % Bound, Mu) was 0.245; in data set [2] (human, plasma, AO-containing constructs, (FB), read-out: Plasma % Bound, Hu), 0.19. Moreover, the recovery at 4 h, 2 μM in data set [1] (CD-1, mouse, plasma, AO-containing constructs, (FB), read-out: Plasma protein binding % Recovery, Mu) worked out at 77.7%; in data set [2] (human, plasma, AO-containing constructs, (FB), read-out: Plasma protein binding % Recovery, Hu) it was 80.6%. Further, the “in vitro Assay Data (NEP assay)” value at human recombinant NEP (Table 7, AO-containing constructs) is listed as “Cleavage of —G—F—K-”.
Consider `Cc1ccc(CCCC(=O)NCCCC[C@H](NC(=O)[C@@H]2CCCCn3cc(nn3)C[C@H](NC(=O)CC[C@H](NC(=O)c3ccc(NCc4cnc5nc(N)[nH]c(=O)c5n4)cc3)C(=O)O)C(=O)N[C@H](Cc3c[nH]cn3)C(=O)N[C@H](CO)C(=O)N[C@H](Cc3c[nH]cn3)C(=O)N[C@H]([C@H](C)O)C(=O)N[C@H](C)C(=O)N2)C(=O)NCC(=O)N[C@@H](Cc2ccccc2)C(=O)N[C@@H](CCCCNC(=O)CN2CCN(CC(=O)O)CCN(CC(=O)O)CCN(CC(=O)O)CC2)C(=O)O)cc1` (177Lu complex, metal not drawn) [Lu177-#6305] ({Pteroyl-γGlu}-[Pra][dH][dS][dH][dT][dA][Lys(N3)]K(Butanoyl(4-(4-MePh)))GFK(DOTA)-OH; triazole 1-7), for which the OVCAR3 tumor growth entry in the data set with OVCAR3 xenograft [3] (14.8 MBq) is “significantly slowed down OVCAR3 tumor growth”. The body weight change result in the data set with OVCAR3 xenograft [3] (29.6 MBq) is reported as “substantial body weight decrease”; with OVCAR3 xenograft [6] (9.25 MBq and 14.8 MBq, single dose) it was “No significant body weight change”. Also, the “tolerability of second dose” value in data set [4] (14.8-22.2 MBq, second dose administered 21 days) was “not tolerated”; in data set [4] (29.6-185 MBq, second dose 7 days after the first), “not tolerated”. The body weight entry is “began to experience weight loss after the first dose” in data set [4] (29.6 MBq, 37 MBq, 111 MBq, and 185 MBq, first dose); “only minimal loss in body weight that quickly stabilized” in data set [4] (single dose of 14.8 MBq, 18.5 MBq, and 22.2 MBq). Moreover, the kidney radioactivity is on record as 414 CPM/g in data set [5] (9.25 MBq group) and 653 CPM/g in data set [5] (14.8 MBq group). Also, the liver radioactivity in data set [5] (9.25 MBq group) is listed as 685 CPM/g; in data set [5] (14.8 MBq group), 1,264 CPM/g. Moreover, the tumor radioactivity in data set [5] (9.25 MBq group) is 33 CPM/g; in data set [5] (14.8 MBq group), 60 CPM/g. Further, the liver/kidney ratio in data set [5] (14.8 MBq group on Day 28) was 1.94; in data set [5] (29.6 MBq group on Day 7), 0.27. In addition, the “radioactivity in the kidney” value in data set [5] (setting [9]) was 394,834 CPM/g. Further, the “radioactivity in the liver” value in data set [5] (setting [9]) is listed as 107,374 CPM/g. Further, the “radioactivity in the tumor” value in data set [5] (setting [9]) is listed as 42,674 CPM/g. In addition, the figures for the tumor response result in the data set on OVCAR3 xenograft [6] (9.25 MBq) and in the data set on OVCAR3 xenograft [6] (14.8 MBq) were “nonresponse” and “partial response”, respectively. Moreover, in the data set on OVCAR3 xenograft [6] (29.6 MBq group, 7 days after injection), the body weight lost was 20%.
Regarding `Cc1ccc(CCCC(=O)NCCCC[C@H](NC(=O)[C@@H]2CCCCn3cc(nn3)C[C@H](NC(=O)CC[C@H](NC(=O)c3ccc(NCc4cnc5nc(N)[nH]c(=O)c5n4)cc3)C(=O)O)C(=O)N[C@H](Cc3c[nH]cn3)C(=O)N[C@H](CO)C(=O)N[C@H](Cc3c[nH]cn3)C(=O)N[C@H]([C@H](C)O)C(=O)N[C@H](C)C(=O)N2)C(=O)NCC(=O)N[C@@H](Cc2ccccc2)C(=O)N[C@@H](CCCCNC(=O)COCCOCCOCCNC(=O)CN2CCN(CC(=O)O)CCN(CC(=O)O)CCN(CC(=O)O)CC2)C(=O)O)cc1` [compound 3302, Fol-hshta-Lys(4-MPBA)-Gly-Phe-Lys(PEG3-DOTA)] ({Pteroyl-γGlu}-[Pra][dH][dS][dH][dT][dA][Lys(N3)]K(Butanoyl(4-(4-MePh)))GFK([AEEEA-DOTA])-OH; triazole 1-7), the fraction unbound was 0.035 in data set [1] and 0.051 in data set [2] (human, plasma). Moreover, the recovery in data set [1] (setting [7]) is 103%; in data set [2] (setting [8]) it was 88.1%. Moreover, the “in vitro Assay Data (NEP assay)” value on human recombinant NEP (Table 2) was “Cleavage of -G-F-K-”.
